Results taken from article PMC3384305 (Nucleic Acids Research, 2012).
Where two headings read alike, the source gives them in different places.

Key:
NHTF (NHTF C-His) [1] = target: T1, NHTF (NHTF C-His) (UniProt Q7DDD9 1-106); assay: EMSA
T1 sequence: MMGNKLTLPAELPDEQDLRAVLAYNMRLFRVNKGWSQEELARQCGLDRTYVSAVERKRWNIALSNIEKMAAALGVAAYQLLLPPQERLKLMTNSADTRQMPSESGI

SEC [2] = target: the molecule itself; assay: SEC
NHTF (NHTF C-His) [3] = target: T1, NHTF (NHTF C-His); assay: EMSA; remark: listed apart in the source
SEC [4] = target: the molecule itself; assay: SEC; remark: listed apart in the source

B1: Specific (mutant) 25-mer (dsDNA)
DNA 1: TACCCGAAGTAAAATCCGTAACAGC
DNA 2: GCTGTTACGGATTTTACTTCGGGTA
B1: no binding (NHTF (NHTF C-His) [1]).

B2: NHTF 5'UTR fragment 1 (dsDNA)
DNA 1: TGTTTCCCAATCTGTCTTGATTTTATCTCTTTCCTC
DNA 2: GAGGAAAGAGATAAAATCAAGACAGATTGGGAAACA
B2: no binding (NHTF (NHTF C-His) [1]).

B3: NHTF 5'UTR fragment 3 (dsDNA)
DNA 1: CTTTTTTTTGGCTTTTATGTGAAGTAAAATCCGTAACAGC
DNA 2: GCTGTTACGGATTTTACTTCACATAAAAGCCAAAAAAAAG
B3: binds (NHTF (NHTF C-His) [1]).

B4: DMP19 (NMB0541), without any tag (natural protein, N. meningitidis MC58, UniProt Q9K0P4 1-165, looked up)
chain: MTALTLPEDIRQQEPSALLYTLVSAYLEHTAQTGDESLSCLSDDQHTLTAFCYLDSQVEEGGFVQLIASGYGEYIFRNPLADSLRRWKIKAVPKVLDKAKALYEQHGKTIETLADGGADIPSLRKQFPEFEEWDGAYYEAAEQDLPLLAEHIQSNWETFAHIGQA
With B4 the “stoichiometry N” value (SEC [2]) was 2.

B5: NHTF 5'UTR fragment 4 (dsDNA)
DNA 1: AAATGCTTAACTTTAACCATTTATCTGGAAGCAA
DNA 2: TTGCTTCCAGATAAATGGTTAAAGTTAAGCATTT
B5: no binding (NHTF (NHTF C-His) [1]).

B6: Specific 25-mer (dsDNA)
DNA 1: TATGTGAAGTAAAATCCGTAACAGC
DNA 2: GCTGTTACGGATTTTACTTCACATA
B6: binds (NHTF (NHTF C-His) [1]).

B7: NHTF 5'UTR fragment 2 (dsDNA)
DNA 1: TTGATGTGTGTGTGTTTGGGTGTGGCTGCCGCCACCC
DNA 2: GGGTGGCGGCAGCCACACCCAAACACACACACATCAA
B7: no binding (NHTF (NHTF C-His) [1]).

B8: Nonspecific 25-mer (dsDNA)
DNA 1: ACCCCTTTTTTTTGGCTTTTATGTG
DNA 2: CACATAAAAGCCAAAAAAAAGGGGT
B8: no binding (NHTF (NHTF C-His) [3]).

B9: C-terminal His6-tagged NHTF transcription factor (natural protein, N. meningitidis MC58)
chain: T1 sequence
With B9 the “stoichiometry N” value (SEC [4]) was 2.
